The source of these data is publication PMC7311520, “β-carboline chemical signals induce reveromycin production through a LuxR family regulator in Streptomyces sp. SN-593” (Scientific Reports, 2020).

For data set [1], the target named is T1, RevU (LuxR family transcriptional regulator) (Actinacidiphila reveromycinica, UniProt G1UDV5).
T1 construct: purified His6-tagged RevU expressed in E. coli from a codon-optimized synthetic gene
Put plainly: SPR (Biacore T200, His6-RevU immobilized on NTA chip); supported by BR-1 bead pull-down with free BR-1 competition. Format: binding.

In data set [2] the target is T2, RevU (LuxR family regulator), His6-tagged (Streptomyces sp. SN-593 (S. …, UniProt G1UDV5)).
T2 sequence: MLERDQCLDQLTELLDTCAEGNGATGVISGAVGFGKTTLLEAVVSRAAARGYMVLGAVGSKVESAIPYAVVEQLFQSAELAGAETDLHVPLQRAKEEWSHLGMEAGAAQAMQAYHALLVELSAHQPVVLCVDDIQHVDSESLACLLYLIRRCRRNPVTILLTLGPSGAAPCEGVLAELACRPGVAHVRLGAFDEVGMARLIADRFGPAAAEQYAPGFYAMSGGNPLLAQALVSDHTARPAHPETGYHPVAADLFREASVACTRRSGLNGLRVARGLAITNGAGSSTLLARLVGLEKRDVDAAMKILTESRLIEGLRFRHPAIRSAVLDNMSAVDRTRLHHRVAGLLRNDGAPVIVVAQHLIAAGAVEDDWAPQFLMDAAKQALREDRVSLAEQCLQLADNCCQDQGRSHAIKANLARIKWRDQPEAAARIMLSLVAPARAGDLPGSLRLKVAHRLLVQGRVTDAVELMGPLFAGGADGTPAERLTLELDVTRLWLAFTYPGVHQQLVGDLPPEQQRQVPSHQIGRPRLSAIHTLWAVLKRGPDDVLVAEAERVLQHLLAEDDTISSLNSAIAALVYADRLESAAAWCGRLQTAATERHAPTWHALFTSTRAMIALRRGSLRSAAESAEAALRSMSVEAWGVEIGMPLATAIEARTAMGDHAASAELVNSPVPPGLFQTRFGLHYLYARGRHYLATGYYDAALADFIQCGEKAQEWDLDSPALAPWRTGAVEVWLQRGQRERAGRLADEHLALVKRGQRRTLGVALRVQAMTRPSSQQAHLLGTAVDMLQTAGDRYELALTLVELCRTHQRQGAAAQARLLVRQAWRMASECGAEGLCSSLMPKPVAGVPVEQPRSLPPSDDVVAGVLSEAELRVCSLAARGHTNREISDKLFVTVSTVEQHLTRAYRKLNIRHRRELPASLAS
Put plainly: SPR; no BR-1; SPR: 10 mM HEPES pH 7.4, 3 mM EDTA, 150 mM NaCl, 0.05% Tween-20, 25 C, RevU 3.9-250 nM; BLI: 10 mM HEPES pH 7.3, 3 mM EDTA, 150 mM NaCl, 0.05% Tween-20, room temperature. The following applies: protein: recombinant; tags: His6 (pColdI); chain copies: 2; label: 5'-biotin; blunt.

The target of data set [3] is T2, RevU (LuxR family regulator), …. Put plainly: SPR; compound 3 (tetrahydro BR-1), 125 nM RevU; not enhanced; SPR: 10 mM HEPES pH 7.4, 3 mM EDTA, 150 mM NaCl, 0.05% Tween-20, 25 C, RevU 3.9-250 nM; BLI: 10 mM HEPES pH 7.3, 3 mM EDTA, 150 mM NaCl, 0.05% Tween-20, room temperature. The following applies: protein: recombinant; tags: His6 (pColdI); chain copies: 2; label: 5'-biotin; blunt.

As for `NC(=O)c1cc2c([nH]c3ccccc32)c(-c2ccccc2)n1` [compound 1, BR-1], binding in data set [1] was put at a Kd of 1310 nM.

B1: Fragment 4 (dsDNA)
DNA 1: GATTATGCGTCGCATTCGGTGTTTGTGGAGTTGATCGAGGATCGGGTTCT
DNA 2: AGAACCCGATCCTCGATCAACTCCACAAACACCGAATGCGACGCATAATC
In the case of B1, the binding result in data set [2] is “binds”.

B2: Fragment 1-1 (dsDNA)
DNA 1: ACGCCGCAACGACCAACAGAGG
DNA 2: CCTCTGTTGGTCGTTGCGGCGT
For B2, the binding result in data set [3] is “binds”.
